The values that follow come from the nanobody polyreactivity screen of Harvey et al. (2022).

A short description of the series: yeast display, Sf9 membrane polyspecificity reagent, FACS + sequencing; frameworks hold sequencing errors. The method in brief:
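Genes from sorted yeast were amplified by colony PCR, read by MiSeq 2 × 250 sequencing and filtered on CDR length. These cells carried a synthetic nanobody library in Saccharomyces cerevisiae BJ5465 and were sorted by FACS into low and high (top ~1%) gates on anti-HA and streptavidin fluorescence. Polyreactivity is labelled according to the gate of origin.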
Take “QVQLVESGGGLVQAGGSLRLSCAASGGTFSKYAMGWYRQAPGKEREFVAAITVSGGGTYYADSVKGRFTISRDNAKYTVYLQMNSLKPEDTAVYDCAADLAWTASDYWGQVTQVTVSS”: the “polyreactivity (PSR sort gate)” value is reported as “low polyreactivity”.

In the case of “QVQLVESGGGLVQAGGSLRLSCAASGGTFSLNAMGWYRQAPGKEREFVAGITWGGGRTYYADSVKGRFTISRDNAKNTVYLQMNSLKPEDTAVYYCAAGAWRGPYSGYYYWGQGTQVTVSS”, the “polyreactivity (PSR sort gate)” value is “low polyreactivity”. The result for “QVQLVESGGGLVQAGGSLRLSCAASGGTFSLYAMGWYRQAPGKEREFVAAISWRGTSTYYADSVKGRFTISRDNAKNTVYLQMNSLKPEDTAVYYCAARAWHEYGSWGQGTQVTVSS” reads “high polyreactivity”; that for “QVQLVESGGGLVQAGGSLRLSCAASGGTFSPYAMGWYRQAPGKERELVAAIRYSGDRTYYADSVKGRFTISRDNAKNTVYLQMNSLKPEDTAVYYCAGPYYNTGYRYGYWGQGTQVTVSS”, “high polyreactivity”.

As to “QVQLVESGGGLVQAGGSLRLSCAASGGTFSPYYMGWYRQAPGKEREFVASITGSGGSTYYADSVKGRFTISRGNAKNTVYVQMNSLKPEDTAVYYCAAQCYWTYWPYLLRLYDYWGQGTQVTVSS”, the “polyreactivity (PSR sort gate)” value is reported as “low polyreactivity”. Under “QVQLVESGGGLVQAGGSLRLSCAASGGTFSQYAMGWYRQAPGKERELVARISRRGGSTSYADSVKGRFTISRDNAKNTVYLQMNSLKPEDTAVYYCAKDAPSVYPGRFGNTGGYAYDYWGQGTQVTVSS” stands “high polyreactivity”; under “QVQLVESGGGLVQAGGSLRLSCAASGGTFSRNVMGCYRPAPGKERELVSAISRRGSSTYYADSVKGRFTISRDNAKNTVFLQMNSLKPEDTAVYYCARDQFTGADEAGDDYWGQGTQVTVSS”, “high polyreactivity”. The result for “QVQLVESGGGLVQAGGSLRLSCAASGGTFSSYAMGWYRPAPGKERELVADITRRGGSTYYADSVKGRFTISRDNAKNTVYLQMNSLKPEDTAVYYCAKDYFRRGLWGFSIYGYWGQGTQVTVSS” reads “high polyreactivity”; that for “QVQLVESGGGLVQAGGSLRLSCAASGGTFSVYAMGWYRQAPGKEREFVASITYGGGITYYADSVKGRFTISRDNAKNTVYLQMNSLKPEDTAVYYCAVDRRVLWYDMDYWGQGTQVTVSS”, “high polyreactivity”. With “QVQLVESGGGLVQAGGSLRLSCAASGGTFSYNTMGWYRQAPGKERELVAVITFSGGSTYYADSVKGRFTISRDNAKNTVYLQMNSLKPEDTAVYYCNARSYPRWLRYDYWGQGTQVTVSS”, the “polyreactivity (PSR sort gate)” value is “low polyreactivity”. As to “QVQLVESGGGLVQAGGSLRLSCAASGGTFSYYAMGWYRQAPGKERELVAAITYSGDRTYYADSVKGRFTISRDNAKNTVYLQMNSLKPEDTAVYYCNAVRGSWYGYYYWGQGTQVTVSS”, the “polyreactivity (PSR sort gate)” value is listed as “high polyreactivity”. As for “QVQLVESGGGLVQAGGSLRLSCAASGGTFVSYAMGWYRQAPGKERELVVAITYSGGSTYYADSVKGRFTISRDNAKNTVYLQMNRLKPEDTAVYYCAAPKFSYFSYSPRGKFKYEYWGQGTQVTVSS”, the “polyreactivity (PSR sort gate)” value is given as “low polyreactivity”. In the case of “QVQLVESGGGLVQAGGSLRLSCAASGGTFVTNAMGWYRQAPGKERELVAAISYDGGITYYADSVKGRFTISRDNAKNTVYLQMNSLKPEDTAVYYCAAYRRYRNWFNYWGQGTQVTVSS”, the “polyreactivity (PSR sort gate)” value was “high polyreactivity”. The result for “QVQLVESGGGLVQAGGSLRLSCAASGGTFVTYTMAWYRQAPGKEREFVAAISRSGGSTYYADSVKGRFTISRDNAKNTVYLQMNSLKPEDTAVYYCATRGRYYGPGYDYWGQGTQVTVSS” reads “high polyreactivity”. With “QVQLVESGGGLVQAGGSLRLSCAASGGTFWKNAMGWYRQAPGKERELVAAIRSSSGNTYYADSVKGRFTISRDNAKNTVYLQMNSLKPEDTAVYSCARRYYDYGYDYYWGQGTQVTVSS”, the “polyreactivity (PSR sort gate)” value is “high polyreactivity”. The result for “QVQLVESGGGLVQAGGSLRLSCAASGGTFWLYTMGWYRQAPGKERELVAAITKSGGSTYYADSVKGRFTISRDNAKNTVYLQMNSLKPEDTAVYYCAARYSVYRDGYYWGQGTQVTVSS” reads “high polyreactivity”; that for “QVQLVESGGGLVQAGGSLRLSCAASGGTFWYYAMGWDRQAPGKERELVAAINWSGDSTYADSVKGRFTISRDNAKNTVYLQMNSLKPEDTAVYYCNADVWYYRMDYWGQGTQVTVSS”, “low polyreactivity”; that for “QVQLVESGGGLVQAGGSLRLSCAASGGTFWYYAMGWYRQAPGKERELVASISRGGSTNYADSVKGRFTISRDNAKNTVYLQMNSLKPEDTAVYYCNAGLRVGPRRYVDYEYDYWGQGTQVTVSS”, “low polyreactivity”. For the sequence “QVQLVESGGGLVQAGGSLRLSCAASGGTFYANAMGWSRQAPGKEREFVASISRSVGSTYYADSVKGRFTISRDNAKNTVYLQMNSLKPEDTAVYYCAARRYSRPRYTYYSWGQGTQVTVSS”, the “polyreactivity (PSR sort gate)” value is on record as “high polyreactivity”. Under “QVQLVESGGGLVQAGGSLRLSCAASGGTFYAYAMGWYRQAPGKERELVAAISRSGSTYYADSVKGRFTISRDNAKNTVYLQMNSLKPEDTAVYYCAARRARRDPVGYVYAKYGYWGQGTQVTVSS” stands “high polyreactivity”; under “QVQLVESGGGLVQAGGSLRLSCAASGGTFYAYAMGWYRQAPGKERELVAAITNSGGSTYYADSVKGRFTISRDNAKNTVYLQMNSLKPEDTAVYYCARRRSYRDNYWGQGTQVTVSS”, “high polyreactivity”; under “QVQLVESGGGLVQAGGSLRLSCAASGGTFYNYAMGWYRQAPGKERELVAAITYSGGITYYADSVKGRFTISRDNAKNTVYLQMNSLKPEDTAVYYCNTDGINSSVVVVDDYWMDYWGQGTQVTVSS”, “low polyreactivity”. For the sequence “QVQLVESGGGLVQAGGSLRLSCAASGGTFYTNVMGGYTQAPGKERELVAAITRSGGSTHYADSVKGRFTISRDNAKNTFYLQMNSLKPEDTEVYYCALGSPYYDGMDYWGQGTQVTVSS”, the “polyreactivity (PSR sort gate)” value is “low polyreactivity”. “QVQLVESGGGLVQAGGSLRLSCAASGGTFYVKDMAWYRQAPWNERDLVATITYSGTSTYYADSVKGRFTISRDNAKNTVYLQMKSLKPEDTAVYYCATDVLLYFEPVNLDYWGQGTQVTVSS”: the “polyreactivity (PSR sort gate)” value was “low polyreactivity”. The result for “QVQLVESGGGLVQAGGSLRLSCAASGGTFYVNAMGWYRQAPGKERELVAAISYRGGRTYYADSVKGRFTISRDNAKNTVYVQMNSVKPEDTAVYYCAAEYSYDHSTGYDYWGQGTQVTVSS” reads “low polyreactivity”; that for “QVQLVESGGGLVQAGGSLRLSCAASGGTFYVYAMGWYRQAPGKERELVAAISTSDGITYYADSVKGRFTLSRDNAKNTVYLQMNSLKPEDTAVYYCAAEFFSSFTYAYDYWGQGTQVTVSS”, “high polyreactivity”; that for “QVQLVESGGGLVQAGGSLRLSCAASGGTFYYNTMGWYRQAPGQERELVAAIRSTGGSTYDADSVKGRFTISRDNAKNTVYLQMNSLKPEDTAVYYCAKKVYTRRRGSDYWGQGTQVTVSS”, “high polyreactivity”. Regarding “QVQLVESGGGLVQAGGSLRLSCAASGGTFYYYAMGWYRQAPGKERELVAAITKNGGSTYYADSVKGRFTISRDNAKNTVYLQMNSLKPEDTAVYYCAASRFGRMDYWGQGTQVTVSS”, the “polyreactivity (PSR sort gate)” value is “high polyreactivity”.

For “QVQLVESGGGLVQAGGSLRLSCAASGGTIENYAMGWYRQAPGKERELVAAISSGGSTNYADSVKGRFTISRDNAKNTVYLQMNSLKPEDTAVYYCATRGIWKKVPYYYWGQGTQVTVSS”, the “polyreactivity (PSR sort gate)” value is “low polyreactivity”.

Consider “QVQLVESGGGLVQAGGSLRLSCAASGGTIYLNAMGWYRQAPRKERELVAGITWGGGRTYYADSVKGRFTISRDNAKNTVYLQMNSLKPEDTAVYYCASGAWRGPYSGYYYWGQGTQVTVSS”, for which the “polyreactivity (PSR sort gate)” value is on record as “low polyreactivity”.
